According to patent US20050282743A1, “Molecular interactions in cells” (Arbor Vita Corporation, priority 2001, published 2005):
Ends that are not written are not given here. Peptide text beside a SMILES is read from it. * marks the point of attachment. Biotin = O=C1N[C@H]2[C@H](CS[C@H]2CCCCC(=O)*)N1

What was measured:
[1] = target: T1, PDZ protein (GST-PDZ fusion) (Homo sapiens, UniProt O14641); test: G' assay (10 uM PL peptide), results of TABLE 7 and TABLE 12; assay type: binding; details: PDZ DVL2, PDZ Domain 1
T1 construct: made in house; host or cells: E. coli (DH5alpha, BL21 or JM109)
T1 sequence (O14641 1-736): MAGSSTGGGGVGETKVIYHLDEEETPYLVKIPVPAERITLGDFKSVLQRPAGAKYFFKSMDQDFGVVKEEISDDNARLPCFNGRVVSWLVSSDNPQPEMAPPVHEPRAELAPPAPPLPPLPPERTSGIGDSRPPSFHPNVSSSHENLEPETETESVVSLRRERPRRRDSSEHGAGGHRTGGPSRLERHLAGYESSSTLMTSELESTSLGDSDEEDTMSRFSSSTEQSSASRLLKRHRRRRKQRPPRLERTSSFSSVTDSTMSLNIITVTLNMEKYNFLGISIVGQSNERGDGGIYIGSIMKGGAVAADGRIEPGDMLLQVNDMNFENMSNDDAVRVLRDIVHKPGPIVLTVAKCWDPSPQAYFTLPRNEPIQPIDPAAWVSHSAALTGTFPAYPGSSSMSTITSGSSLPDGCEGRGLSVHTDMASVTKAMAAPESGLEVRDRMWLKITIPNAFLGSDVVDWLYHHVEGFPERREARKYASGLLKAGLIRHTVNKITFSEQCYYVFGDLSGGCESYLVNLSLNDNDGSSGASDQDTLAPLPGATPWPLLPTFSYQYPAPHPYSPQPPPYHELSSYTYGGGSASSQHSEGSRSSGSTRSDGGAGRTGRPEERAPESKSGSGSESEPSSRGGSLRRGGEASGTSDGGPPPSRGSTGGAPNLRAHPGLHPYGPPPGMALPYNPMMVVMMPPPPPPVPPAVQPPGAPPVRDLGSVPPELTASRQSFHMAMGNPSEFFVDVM
Outline: (§1)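 Same steps as the G-zero format, apart from a peptide concentration of 10 uM in place of 20 uM in step 2. Amino-terminally biotinylated PL peptides bind GST-PDZ fusions, and retained peptide is quantified by 450 nm absorbance.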

[2] = target: T2, PDZ protein (GST-PDZ fusion) (Homo sapiens, UniProt P50479); test: as above; assay type: binding; details: PDZ LIM RIL, PDZ Domain 1
T2 construct: made in house; host or cells: E. coli (DH5alpha, BL21 or JM109)
T2 sequence (P50479 1-330): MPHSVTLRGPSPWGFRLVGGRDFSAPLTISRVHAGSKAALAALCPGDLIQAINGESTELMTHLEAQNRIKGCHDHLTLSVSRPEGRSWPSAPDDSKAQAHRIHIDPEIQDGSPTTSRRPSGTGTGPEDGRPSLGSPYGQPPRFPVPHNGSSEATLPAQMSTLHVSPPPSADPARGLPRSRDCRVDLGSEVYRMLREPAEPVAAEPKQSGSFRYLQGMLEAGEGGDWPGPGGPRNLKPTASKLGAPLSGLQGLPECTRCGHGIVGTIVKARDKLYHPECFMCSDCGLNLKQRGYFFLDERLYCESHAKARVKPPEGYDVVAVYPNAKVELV
Outline: as §1

**Q.** Which Classification [1] does the source give for “ELLQFCRTPNPALKNGQYWV (Biotin-ELLQFCRTPNPALKNGQYWV)” here?
**A.** The Classification was 5 (A450 nm of 4 more than 2× repeated).

**Q.** What about the Classification [2] of the same compound?
**A.** The Classification was 2 (A450 nm 1-2).

**Q.** For `CC[C@H](C)[C@H](NC(=O)[C@H](Cc1ccc(O)cc1)NC(=O)[C@@H](NC(=O)[C@@H]1CCCN1C(=O)[C@H](CCC(N)=O)NC(=O)[C@H](CCC(=O)O)NC(=O)[C@H](CCC(N)=O)NC(=O)[C@H](C)NC(=O)[C@@H](NC(=O)[C@H](CC(C)C)NC(=O)[C@H](CC(C)C)NC(=O)[C@H](CCCNC(=N)N)NC(=O)[C@H](Cc1ccc(O)cc1)NC(=O)[C@H](CCSC)NC(=O)[C@H](C)NC(=O)[C@H](C)NC(=O)[C@@H]1CCCN1C(=O)[C@H](CCSC)NC(=O)[C@@H](NC(=O)[C@H](CCCCN)NC(=O)CCCC[C@@H]1SC[C@@H]2NC(=O)N[C@@H]21)[C@@H](C)O)[C@@H](C)O)C(C)C)C(=O)O` [MINT-1] (Biotin-KTMPAAMYRLLTAQEQPVYI-OH; C-terminus assumed), which Classification [1] is on record?
**A.** Its Classification is 2 (A450 nm 1-2).
